Paper PMC10403280

Assays:
[1] = target: affibody Z_(SPA-1); test: SPR; BIAcore T100; about 100 RU of biotinylated affibody captured on a streptavidin (SA) chip, the partner flowed over in two-fold dilutions; HBS-P+; 1:1 binding model or steady-state affinity model; which partner was captured is not told
[2] = target: affibody ZpA963; test: as above
[3] = target: affibody ZpA963, second protein (Z-B) of the yeast-displayed single chain; test: on-yeast cleavage-capture assay; details: 60 min after 3C protease cleavage; parent: est. 63; read off a plot
[4] = target: Z domain of staphylococcal protein A, displayed on yeast (first protein, Z-A); test: flow cytometry on cells; on-yeast cleavage-capture assay: Aga2-cMyc-ZA-linker (3C site)-ZB-HA on S. cerevisiae EBY100, stained with Alexa Fluor 488 anti-cMyc and Alexa Fluor 647 anti-HA antibody, cut with 3C protease (0.4 mg/mL in MACS buffer, 4°C); HA-tag MFI as % of the MFI before cleavage
[5] = target: Z domain of staphylococcal protein A, displayed on yeast (first protein, Z-A); test: flow cytometry on cells; on-yeast cleavage-capture assay, test of fluorescently labelled anti-HA antibodies of different valency (Fab, IgG mAb, Fab+streptavidin complex); staining after 3C cleavage as % of uncleaved cells
[6] = target: Z domain of staphylococcal protein A, displayed on yeast (first protein, Z-A); test: on-yeast cleavage-capture assay; details: 60 min after 3C protease cleavage; parent: est. 63; read off a plot

In the case of “Z domain of staphylococcal protein A (domain or fragment)”, the Kd [1] is reported as 2920 nM and the Kd [2] is reported as 10 nM.
Substance “Z domain of staphylococcal protein A, displayed on yeast (first protein, Z-A) L17I” has a response [3] of 66 % max.
Work on “affibody ZpA963, second protein (Z-B) of the yeast-displayed single chain (designed binder)” yielded a % of HA-tag fluorescence kept after an hour of 3C protease cleavage [4] of 68.7%, a % of the staining of uncleaved cells kept after 3C cleavage (anti-HA Fab+SA complex) [5] of 69.9% and a % of the staining of uncleaved cells kept after 3C cleavage (anti-HA IgG mAb) [5] of 45.8%.
“affibody ZpA963, second protein (Z-B) of the yeast-displayed single chain I31V” gave a response [6] of 30 % max.
“affibody ZpA963, second protein (Z-B) of the yeast-displayed single chain L35I” gave a response [6] of 26 % max.
